In article PMC5728393 (Nucleic Acids Research, 2017):

T1: PadR (Bacillus spizizenii, UniProt E0TW95)
T1 sequence (E0TW95 1-182): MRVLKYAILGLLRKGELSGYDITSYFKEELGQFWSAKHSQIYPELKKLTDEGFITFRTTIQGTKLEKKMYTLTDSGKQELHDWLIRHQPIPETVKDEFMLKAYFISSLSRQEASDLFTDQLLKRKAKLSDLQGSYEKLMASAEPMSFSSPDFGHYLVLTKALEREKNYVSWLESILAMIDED

T2: PadR WT (Bacillus subtilis, UniProt E0TW95 1-182)
T2 sequence: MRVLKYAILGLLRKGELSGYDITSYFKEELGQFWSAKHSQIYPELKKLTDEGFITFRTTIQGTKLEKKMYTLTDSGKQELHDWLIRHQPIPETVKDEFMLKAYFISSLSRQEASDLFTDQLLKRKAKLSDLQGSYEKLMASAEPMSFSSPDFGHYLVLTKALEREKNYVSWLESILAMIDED


Biological target: the molecule itself
Experiment: SEC
Settings: not given

Molecule | stoichiometry N
phenolic acid decarboxylase regulator (PadR) from Bacillus subtilis, wild type (natural protein, UniProt E0TW95 1-182, looked up) MRVLKYAILGLLRKGELSGYDITSYFKEELGQFWSAKHSQIYPELKKLTDEGFITFRTTIQGTKLEKKMYTLTDSGKQELHDWLIRHQPIPETVKDEFMLKAYFISSLSRQEASDLFTDQLLKRKAKLSDLQGSYEKLMASAEPMSFSSPDFGHYLVLTKALEREKNYVSWLESILAMIDED | 2

The molecules below were run against T1, PadR (assay: X-ray crystal structure of the complex). Settings: 10 mM ferulic acid soak, 22% PEG 3350, 0.1 M sodium acetate pH 4.0; interdomain pocket.
Type: binding

Molecule | X-ray crystal structure of the complex (soaked crystals)
COc1cc(/C=C/C(=O)O)ccc1O [ferulic acid] | we also determined a PadR structure in complex with ferulic acid (PadR3FA)

Each molecule was assayed against T1, PadR (assay: isothermal titration calorimetry). Settings: not given.
Type: binding

Molecule | Kd [nM]
O=C(O)/C=C/c1ccc(O)cc1 [p-coumaric acid] | 6200 ± 100

These molecules were tested against T2, PadR WT (assay: fluorescence polarization). Settings: not given.

Molecule | Kd [nM]
operator C6A/C6'A (dsDNA) DNA 1: CGGAAAATGTAAATAGTTACATTATTAC DNA 2: GTAATAATGTAACTATTTACATTTTCCG | 312 ± 45.5
operator C6G/C6'G (dsDNA) DNA 1: CGGAAGATGTAAATAGTTACATCATTAC DNA 2: GTAATGATGTAACTATTTACATCTTCCG | 200 ± 21.7
operator C6T/C6'T (dsDNA) DNA 1: CGGAATATGTAAATAGTTACATAATTAC DNA 2: GTAATTATGTAACTATTTACATATTCCG | 160 ± 6.9
operator T8A/T8'A (dsDNA) DNA 1: CGGAACAAGTAAATAGTTACTTGATTAC DNA 2: GTAATCAAGTAACTATTTACTTGTTCCG | 41 ± 4
operator G9T/G9'T (dsDNA) DNA 1: CGGAACATTTAAATAGTTAAATGATTAC DNA 2: GTAATCATTTAACTATTTAAATGTTCCG | 37.8 ± 6.7
operator G9A/G9'A (dsDNA) DNA 1: CGGAACATATAAATAGTTATATGATTAC DNA 2: GTAATCATATAACTATTTATATGTTCCG | 15.7 ± 2.9
operator T10A/T10'A (dsDNA) DNA 1: CGGAACATGAAAATAGTTTCATGATTAC DNA 2: GTAATCATGAAACTATTTTCATGTTCCG | 11.6 ± 1.3
operator T17A/T17'A (dsDNA) DNA 1: CGGAACATGTATATAGATACATGATTAC DNA 2: GTAATCATGTATCTATATACATGTTCCG | 9.4 ± 1.4
operator T18C/T18'C (dsDNA) DNA 1: CGGAACATGTGAATAGTCACATGATTAC DNA 2: GTAATCATGTGACTATTCACATGTTCCG | 20.8 ± 1.9
operator T18G/T18'G (dsDNA) DNA 1: CGGAACATGTCAATAGTGACATGATTAC DNA 2: GTAATCATGTCACTATTGACATGTTCCG | 9.9 ± 1.7
bridge operator (dsDNA) DNA 1: AGTTACATGATTACCGGAACATGTAAAT DNA 2: ATTTACATGTTCCGGTAATCATGTAACT | 8.9 ± 2.1
